Assay: yeast display, Sf9 membrane polyspecificity reagent, FACS + sequencing; frameworks hold sequencing errors
How it was run: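 Using colony PCR, genes from sorted yeast display clones were amplified, then sequenced on MiSeq at 2 × 250 and filtered by CDR length. The clones had been stained with 10% biotinylated, detergent-solubilized Sf9 membrane reagent for 1 hour at 4 °C and sorted by FACS into low and high (top ~1%) gates on anti-HA and streptavidin fluorescence. Polyreactivity labels come from the gate of origin.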
With “QVQLVESGGGLVQAGGSLRLSCAASGFIFYYNDMGWYRQAPGKERELVAAISGGVGSTYYADSVKGRFTISRDNAKNTVYLQMNSLKPEDSAVYYCATRRYSLTYGLGYDYWGQGTQVTVSS” the “polyreactivity (PSR sort gate)” value was “low polyreactivity”.
For “QVQLVESGGGLVQAGGSLRLSCAASGFIFYYNTMGWYRQAPGKERELVAAISSGGRTYYADSVKGRFTISRDNAKNTVYLQMNSLKPEVTAVYYCNVVTYVKYGYWGQGTQVTVSS”, the “polyreactivity (PSR sort gate)” value was “high polyreactivity”.
With “QVQLVESGGGLVQAGGSLRLSCAASGFIFYYYAMGWYRQAPGKEREFVAGISRSGGSTYYADSVKGRFTISRDHAKNTVNLLQNSLKTEDTAVYYCNARPLYHFWYYSGEEYGYWGQGTQVTVSS” the “polyreactivity (PSR sort gate)” value was “high polyreactivity”.
With “QVQLVESGGGLVQAGGSLRLSCAASGFIFYYYAMGWYRQAPGKERELVAGITATGGSTYYADSVKGRFTISRDNAKNTVYLQMNSLKPEDTAVYYCARGPSGTPNGNTPYGDNRYNSWGQGTQVTVSS” the “polyreactivity (PSR sort gate)” value was “low polyreactivity”.
With “QVQLVESGGGLVQAGGSLRLSCAASGFIFYYYDMGWYRQAPGKERELVAAITYDGGSTYYADSVKGRFTSSRDNAKNTVYLQMNSLKPEDTAVYYCNAVYGQYYDYWGQGTQVTVSS” the “polyreactivity (PSR sort gate)” value was “low polyreactivity”.
In the case of “QVQLVESGGGLVQAGGSLRLSCAASGFIFYYYTMGWYRQAPGKEREFVAAISSSGTITYYADSVKGRFTISRDNAKNTVYLQMNSLKPEDTAVYYCNAELYYPYEFWRFSGYDYWGQGTQVTVSS”, the “polyreactivity (PSR sort gate)” value was “low polyreactivity”.
In the case of “QVQLVESGGGLVQAGGSLRLSCAASGFIFYYYTMVWYRQAPGKERELVAAIRTGGGTNYADSVKGRFTISRDNAKNTVYLQRNSLKPEDTAVYYCAKGRQGVSYLTGTYGGRDYWGQGTQVTVSS”, the “polyreactivity (PSR sort gate)” value was “low polyreactivity”.
In the case of “QVQLVESGGGLVQAGGSLRLSCAASGFIIDEYAMGWYRQAPGKERELVAAISWSGSRTYYADSVKGRFTISRDNAKNTVYLQMNSLKPEDTAVYYCAKVTGVGAGRRIYWGQGTQVTVSS”, the “polyreactivity (PSR sort gate)” value was “low polyreactivity”.
With “QVQLVESGGGLVQAGGSLRLSCAASGFIIDRNAMGWSRPAPGKERELVAAITWSTTSTYYADSVKGRFTISRDNAKNTVYLQMNSLKPEDTAVYYCAADITSPAYATYDYWGQGTQVTVSS” the “polyreactivity (PSR sort gate)” value was “low polyreactivity”.
For “QVQLVESGGGLVQAGGSLRLSCAASGFIIDRYAMGWYRQAPGKERELVARISWSGGSTYYADSVKGRFTISRDNAKNTVYLQMNSLKPEDTAVYYCNKAAWWLQSRYDYWGQGTQVTVSS”, the “polyreactivity (PSR sort gate)” value was “high polyreactivity”.
For “QVQLVESGGGLVQAGGSLRLSCAASGFIIEAYTMGWYRQAPGKERELVAAITWTGGSTYYADSVKGRFTISRDNAKNTVYLQMNSLKPEDTAVYYCNVPYYSFRELSSYYWGQGTQVTVSS”, the “polyreactivity (PSR sort gate)” value was “high polyreactivity”.
In the case of “QVQLVESGGGLVQAGGSLRLSCAASGFIIFQYAMGLYRQAPGKERELVAAISGSGVTTYYADSVKGRFTISRDNAKNNVYLQMNSLKPEDTAVYYCNAALSWKYDWGQGTQVTVSS”, the “polyreactivity (PSR sort gate)” value was “low polyreactivity”.
With “QVQLVESGGGLVQAGGSLRLSCAASGFIINGNDMGWYRQAPGKERELVAAISSSGGSTYYADSVKGRFTISRDNAKNTVYLQMNSRTPEDSAVYYCARRGKQVSGRYYYWGQGTQVSVSS” the “polyreactivity (PSR sort gate)” value was “high polyreactivity”.
In the case of “QVQLVESGGGLVQAGGSLRLSCAASGFIIPDYAMGWYRQAPVKERELVAAITSSGGRTYYADSVKVRFTISRDNAKNTVYLQMNSLIPEDTAVYYCAARTNSPRGYGSDYWGQGTQVTVSS”, the “polyreactivity (PSR sort gate)” value was “high polyreactivity”.
In the case of “QVQLVESGGGLVQAGGSLRLSCAASGFIISGYAMGWYRQAPGKERELVAAISWSGGRTYYADSVKGRFTISRDNAKNTVYLQMKSLKPEDTAVYYFAADGYYRDWYGYGYWGLGTQVTVSS”, the “polyreactivity (PSR sort gate)” value was “high polyreactivity”.
In the case of “QVQLVESGGGLVQAGGSLRLSCAASGFIISRNAMGWYRQAPGKERELVAAIRTRTGSTYYADSVKGRFTISRDNAKNTVYLQMNSLKPEDTAVYYCNAYPYVNGRYGSWGQGTQVTVSS”, the “polyreactivity (PSR sort gate)” value was “high polyreactivity”.
For “QVQLVESGGGLVQAGGSLRLSCAASGFIISYYAMGWYRQAPGKDRELVAAISWRGGSTYYADSVKGRFTISRDNAKNTVYLQMNSLKPEDTAVYYCAADFLYGAEGNDYWGQGTQVTVSS”, the “polyreactivity (PSR sort gate)” value was “high polyreactivity”.
In the case of “QVQLVESGGGLVQAGGSLRLSCAASGFIISYYAMGWYRQAPGKERELVATINFSGAGTSYADSVKGRFTISRDNAKNTVYLQMNSLKPEDTAVYYCAARTNSPRGYGSDYWGQGTQVTVSS”, the “polyreactivity (PSR sort gate)” value was “high polyreactivity”.
For “QVQLVESGGGLVQAGGSLRLSCAASGFIITSYAMGWYRQAPGKERELVATISSSGGTTYYADSVKGRFTISRDTAKNTVYLQMNSLKPEDTAVYYCAKDAFGWGRVYYYRSGYWGQGTQVTVSS”, the “polyreactivity (PSR sort gate)” value was “high polyreactivity”.
In the case of “QVQLVESGGGLVQAGGSLRLSCAASGFIIYLYAMGWSRQAPGKERELLAAISRGGGTTYYADSVKGRFTISRDYAQNTVYLQMNSLKPEDTAVYYCAAETEYYSYRFDYWGQGTQVSVSS”, the “polyreactivity (PSR sort gate)” value was “high polyreactivity”.
With “QVQLVESGGGLVQAGGSLRLSCAASGFIIYSYAMGWYRQAPGKERELVAGITSDGRTYYADSVKGRFTISRDNAKNTVYLQMNSLKPEDTAVYYCAARYYLFYRVSPYYYWGQGTQVTVSS” the “polyreactivity (PSR sort gate)” value was “low polyreactivity”.
In the case of “QVQLVESGGGLVQAGGSLRLSCAASGFILGRYAMGWYRQAPGKERELVAAISIGGRTNYADSVKGRFTISRDNAKITVYFQMNSLKPEDTAVYYCATSFAVLLSQVDYWGQGTQVTVSS”, the “polyreactivity (PSR sort gate)” value was “low polyreactivity”.
For “QVQLVESGGGLVQAGGSLRLSCAASGFILKDNAMGWYRQAPGKERELVAAISSGGGTYYADSVKGRFTISRDNAKNTVSLKMNSLKPEDTAVYYCNADDLYSLNDSSEDYWGQGTQVTVSS”, the “polyreactivity (PSR sort gate)” value was “high polyreactivity”.
In the case of “QVQLVESGGGLVQAGGSLRLSCAASGFILKPNAMGWYRQAPGKERELVAAISWSSGSTYYADSVKGRFTISRDNAKNTVYLQMNSLKPEDTAVYYCAKDLTQIYYGDDYWGQGTQVTVSS”, the “polyreactivity (PSR sort gate)” value was “low polyreactivity”.
In the case of “QVQLVESGGGLVQAGGSLRLSCAASGFILPYYAMGWYRQAPGKERELVAAISDTGRTNYADSVKGRFTISRDNAKYTVYLQMNSLKPEDTAVYYCAARYYSPRYWFRYDSWGQCTQVTVSS”, the “polyreactivity (PSR sort gate)” value was “high polyreactivity”.
With “QVQLVESGGGLVQAGGSLRLSCAASGFILRGYAMGWYIQAPGKERELVDVITGRGDRTYYADSVKGRFTISRDNAKNTVYLQMNSLKPEETAVYYCAARAQPGGSSAIKMYYWGQGTQVTVSS” the “polyreactivity (PSR sort gate)” value was “high polyreactivity”.
With “QVQLVESGGGLVQAGGSLRLSCAASGFILRKYAMGWYRQAPGKERELVAAINGRGGTYYADSVKGRFTISRDNAKNTVYLQMNSLKPEDTAVYYCAAVEWYGYYTYTIDAYDYWGQGTQVTVSS” the “polyreactivity (PSR sort gate)” value was “high polyreactivity”.
For “QVQLVESGGGLVQAGGSLRLSCAASGFILRNNAMGWSRQAPGKEREFVAAISSGTRTNYADSVKGRFTISSDNAKNTVYLQMNSLKPEDTAVYYCDAYPTRYYVGYDYWGQGTQVTVSS”, the “polyreactivity (PSR sort gate)” value was “high polyreactivity”.
With “QVQLVESGGGLVQAGGSLRLSCAASGFILRYYAMGWYRQPPGKERELVAAISWSGGSTYYADSVMGRFTISRDNAKNTVYLQMNSLKPEDTAVYYCAADRYAILFYAEDYWGQGTQVTVSS” the “polyreactivity (PSR sort gate)” value was “low polyreactivity”.
With “QVQLVESGGGLVQAGGSLRLSCAASGFILSFYTMGWYRQEPGKERELVAVISSRGGRTYYADSVKGRFTISRDNAKNTVYLQMNSLKPEDTAVYYCNKRYYFPKPFDYWGQGTQVTVSS” the “polyreactivity (PSR sort gate)” value was “high polyreactivity”.
For “QVQLVESGGGLVQAGGSLRLSCAASGFILSPNTMGWYRLAPGKERELVAAISSDVSTYADSVKGRFTISRDNAKNTVYLQMYSLKPEDTAVYYCNADDFGYASYESWGQGTQVTVSS”, the “polyreactivity (PSR sort gate)” value was “low polyreactivity”.
For “QVQLVESGGGLVQAGGSLRLSCAASGFILTSYAMGWNRQAPGKERELVAAISSRGGRTYYADSVKGRFTISRDNAKNTVYLQMNSLKPEDTAVYYCNAVVYVVGDFDYWGQGTQVTVSS”, the “polyreactivity (PSR sort gate)” value was “high polyreactivity”.
With “QVQLVESGGGLVQAGGSLRLSCAASGFILYFNAMGWYSQAPGKERELVAAITSDGGSTYYADSVKGRFTISRDNAKNTVYLQMNSLKPEDTAVYYCAADASTWYTEEYWGQGTQVTVSS” the “polyreactivity (PSR sort gate)” value was “low polyreactivity”.
In the case of “QVQLVESGGGLVQAGGSLRLSCAASGFILYYYVMGWYRQAPGKERELVAAISTSGTSTYYADSVKGRFTISRDNAKNTVYLQMNSLKPEDTAVYYCAAEKDSSDIMEYWGQGTQVTVSS”, the “polyreactivity (PSR sort gate)” value was “high polyreactivity”.
For “QVQLVESGGGLVQAGGSLRLSCAASGFISAYYAMGWYRQAPGKEMELVAAISWNGGRTFYADSVKGRFTISRDNAKNTVYLQMNSLKPEDTAVYYCAADGRLRGYGYWGQGTQVTVSS”, the “polyreactivity (PSR sort gate)” value was “high polyreactivity”.
With “QVQLVESGGGLVQAGGSLRLSCAASGFISAYYAMGWYRQAPGKERELVAAISWNGGRTFYADSVKGRFTISRDNAKNTVYLQMNSLKPEDTAVYYCAADGRLRGYGYWGQGTQVTVSS” the “polyreactivity (PSR sort gate)” value was “high polyreactivity”.
With “QVQLVESGGGLVQAGGSLRLSCAASGFISFAYAMAWYRQAPGKERELVAGISRSGDSTYYADSVKGRFTISRDNAKNTVYLQMNSLKPEDTAVYYCAARQVVWFDYTTAQVGSYKVNYWGQGTQVTVSS” the “polyreactivity (PSR sort gate)” value was “low polyreactivity”.
For “QVQLVESGGGLVQAGGSLRLSCAASGFISFDNAMGWYRQAPGKERELVAAIRSGGSTNYADSVKGRFTISRDNAKNSVYLQMNSLKPEDTAVYYCAALDQYGYYQKYYYWGQGTQVTVSS”, the “polyreactivity (PSR sort gate)” value was “low polyreactivity”.
In the case of “QVQLVESGGGLVQAGGSLRLSCAASGFISLRNTMGWYRQAPGKERELVAAINWSGGSTYYADSVKGRFTISRDNAKNTVYLQMNSLKPEDTAVYYCAKGPWPPIYRLFPGYAKFGYWGQGTQVTVSS”, the “polyreactivity (PSR sort gate)” value was “low polyreactivity”.
With “QVQLVESGGGLVQAGGSLRLSCAASGFISPPYAMGWYRQAPGKERELVAAIRSSGGSTYYADSVKGRFTISRDNAKNTVYLQMNSLIPEDTAVYYCNADWIYISSYGWYSYDYWGQGTQVTVSS” the “polyreactivity (PSR sort gate)” value was “high polyreactivity”.
With “QVQLVESGGGLVQAGGSLRLSCAASGFISPSNAMGWYRQAPGKERELVAAIRSSDGSTYYADSVKGRFTISRDNAKNTVYLQMNSLKPEDTAVYYCAAGGSYYRDDYWGQGTQVTVSS” the “polyreactivity (PSR sort gate)” value was “low polyreactivity”.
In the case of “QVQLVESGGGLVQAGGSLRLSCAASGFISTINVMGWYRQAPGKERELVAAITYIDGSTFYADSVKGRFTISRDNAKNTVYLQMNSLKPEDTAVYYCAADLYQWGAVFLYVRSTGLDYWGQGTQVTVSS”, the “polyreactivity (PSR sort gate)” value was “low polyreactivity”.
For “QVQLVESGGGLVQAGGSLRLSCAASGFISYPYAMGWSRPAPGKERELVAAISSSGGSTYYADSVKGRFTISRDNAKNTVYLQMNSLIPEDTAVYYCAARGFYRSYYWGQGTHVTVSS”, the “polyreactivity (PSR sort gate)” value was “high polyreactivity”.
